{"source": "IntAct's records for PubMed 23085078", "parents": {"B1": {"name": "Proline-rich nuclear receptor coactivator 2 (Homo sapiens), Q9NPJ4-1 (parent)", "chain": "MGGGERYNIPAPQSRNVSKNQQQLNRQKTKEQNSQMKIVHKKKERGHGYNSSAAAWQAMQNGGKNKNFPNNQSWNSSLSGPRLLFKSQANQNYAGAKFSEPPSPSVLPKPPSHWVPVSFNPSDKEIMTFQLKTLLKVQV", "partner": "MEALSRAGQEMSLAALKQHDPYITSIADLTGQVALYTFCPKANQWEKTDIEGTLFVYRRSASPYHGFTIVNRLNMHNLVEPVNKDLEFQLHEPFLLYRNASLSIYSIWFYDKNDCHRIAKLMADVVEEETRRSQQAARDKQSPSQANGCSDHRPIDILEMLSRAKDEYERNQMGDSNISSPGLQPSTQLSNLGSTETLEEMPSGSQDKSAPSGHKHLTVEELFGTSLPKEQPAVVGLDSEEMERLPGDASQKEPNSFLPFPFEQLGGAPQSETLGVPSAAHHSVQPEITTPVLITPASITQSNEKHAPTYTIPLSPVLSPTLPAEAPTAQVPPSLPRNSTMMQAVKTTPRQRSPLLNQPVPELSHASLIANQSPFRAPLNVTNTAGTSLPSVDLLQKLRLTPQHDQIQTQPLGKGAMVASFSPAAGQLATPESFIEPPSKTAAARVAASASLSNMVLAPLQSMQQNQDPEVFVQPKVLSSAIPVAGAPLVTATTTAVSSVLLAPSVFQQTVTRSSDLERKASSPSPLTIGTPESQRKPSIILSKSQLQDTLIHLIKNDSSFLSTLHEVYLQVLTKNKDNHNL"}}, "data": [{"variants_of": "B1", "conditions": "with dcp1a_human DCP1A", "values": [{"variant": "P108A", "effect of a mutation on the interaction": "decreasing interaction strength"}, {"variant": "K109A", "effect of a mutation on the interaction": "disrupting interaction strength"}, {"variant": "W114A", "effect of a mutation on the interaction": "disrupting interaction strength"}]}]}
